Tests used:
[1] = substrate: CC(C)C(=O)SCCNC(=O)CCNC(=O)[C@H](O)C(C)(C)COP(=O)(O)OP(=O)(O)OC[C@H]1O[C@@H](n2cnc3c(N)ncnc32)[C@H](O)[C@@H]1OP(=O)(O)O; experiment: Kinetic characterisation of purified carboxy-terminal hexahistidine tagged 4HBT (thioester hydrolysis, DTNB); type: biochemical; conditions: other: substrate of purified CtHis-4HBT (0.075 mg/ml for methacrylyl-CoA, 1 mg/ml for isobutyryl-CoA), DTNB 0.5 mM, Lineweaver-Burke plot; 18.0 °C
Experimental: (§1) Pure carboxy-terminal His-tagged 4HBT enzyme was then prepared by first growing cultures of E. coli BL21 (DE3) pLysS pET20b(+)::CtHis-4HBT and inducing expression in the exact same manner as was performed for E. coli BL21 (DE3) pLysS pET20b(+)::4HBT. […] Cells were harvested by splitting the cell culture into three centrifuge tubes and centrifuging at 5000 g for 20 min at 4° C. Cell pellets were not washed though, and were instead directly stored at −80° C. A cell free extract of carboxy-terminal hexahistidine tagged 4HBT was prepared by re-suspending one of the E. coli BL21 (DE3) pLysS pET20b(+)::CtHis-4HBT cell pellets in binding buffer (6 ml) for a Nickel-sepharose FPLC column. Binding buffer consisted of NaH2PO4 (10 mM), Na2HPO4 (10 mM), NaCl (500 mM), imidazole (30 mM) and was adjusted to pH 7.4 with HCl. Benzonase® nuclease (0.6 μl) was added to the re-suspended cells before they were lysed in the Constant Systems One Shot cell disrupter. The cell lysate was then clarified by centrifugation at 18,000 g for 15 min at 4° C., followed by centrifugation of the supernatant at 57,750 g for 60 min at 4° C. This supernatant was then loaded onto a GE Healthcare HisTrap™ FF Crude column (1 ml) that was equilibrated with binding buffer. […] Protein elution was monitored at 280 nm and fractions were checked for the presence and purity of carboxy-terminal His-tagged 4HBT by SDS-PAGE. […] The latter dilution in potassium phosphate assay buffer and re-concentration was performed once more and the concentration of CtHIS-4HBT protein was determined by UV280 absorbance in a NanoDrop ND1000 spectrophotometer, using a molar extinction coefficient of 20970M^−1·cm^−1 and a molecular weight of 17516.5 mg·mmol^−1 for the carboxy-terminal His-tagged 4HBT enzyme. The values for the molar extinction coefficient and molecular weight were determined using the Expasy ProtParam tool, using the amino acid translation of the gene sequence encoding the carboxy-terminal his tagged 4HBT enzyme (SEQ. ID 5) in the pET20b(+)::CtHis-4HBT plasmid. […]
(§2) Methacrylyl-CoA hydrolysis reactions (200 μl) were performed in Nunc 96 well plates using purified CtHis-4HBT protein (0.075 mg·ml^−1) and DTNB (0.5 mM) to monitor the reaction. Initial rates were determined for methacrylyl-CoA starting concentrations of 0.375 mM, 0.3 mM, 0.225 mM, 0.15 mM and 0.075 mM. […]
(§3) Isobutyryl-CoA hydrolysis reactions (200 μl) were also performed in Nunc 96 well plates, using purified CtHIS-4HBT protein (1 mg·ml^−1) and DTNB (0.5 mM) to monitor the reaction. Initial rates were determined for isobutyryl-CoA starting concentrations of 0.5 mM, 0.4 mM, 0.3 mM, 0.2 mM and 0.1 mM. […]

[2] = substrate: C=C(C)C(=O)SCCNC(=O)CCNC(=O)[C@H](O)C(C)(C)COP(=O)(O)OP(=O)(O)OC[C@H]1O[C@@H](n2cnc3c(N)ncnc32)[C@H](O)[C@@H]1OP(=O)(O)O; experiment: as above; type: biochemical; conditions: other: substrate of purified CtHis-4HBT (0.075 mg/ml for methacrylyl-CoA, 1 mg/ml for isobutyryl-CoA), DTNB 0.5 mM, Lineweaver-Burke plot; 18.0 °C
Experimental: as §1, §2, §3

B1: 4-hydroxybenzoyl-CoA thioesterase (4HBT) (Arthrobacter sp.) (protein)
chain: MHRTSNGSHATGGNLPDVASHYPVAYEQTLDGTVGFVIDEMTPERATASVEVTDTLRQRWGLVHGGAYCALAEMLATEATVAVVHEKGMMAVGQSNHTSFFRPVKEGHVRAEAVRIHAGSTTWFWDVSLRDDAGRLCAVSSMSIAVRPRRDGLEHHHHHH
notes: made in house; host or cells: E. coli BL21 (DE3) pLysS pET20b(+)::CtHis-4HBT
Km [1]: 3000 µM | Vmax [1]: 16.7 nmols·mg^−1·min^−1 | Km [2]: 1600 µM | Vmax [2]: 470 nmols·mg^−1·min^−1

— patent publication US11248243B2, “Process for the biological production of methacrylic acid and derivatives thereof” (MITSUBISHI CHEMICAL UK LIMITED, priority 2015, dated 2022)
